Measured values as given in publication PMC10509710.
One block for each substance: values may come before it.

Legend:
[1] = target: human full-length scavenger receptor class B type 1 (SR-B1), glycosylated (human) (UniProt Q8WTV0); assay: flow cytometry on cells; Sf9 cells 72 h after baculovirus infection, 10 μg/ml DiI-HDL or DiI-oxLDL in ESF 921/0.5% BSA for 90 min at 4 °C; MFI compared with cells infected with empty vector
[2] = target: human full-length cluster of differentiation 36 (CD36), glycosylated (human) (UniProt P16671); assay: as above
Sequence of human full-length cluster of differentiation 36 (CD36), glycosylated (human) (P16671 whole entry): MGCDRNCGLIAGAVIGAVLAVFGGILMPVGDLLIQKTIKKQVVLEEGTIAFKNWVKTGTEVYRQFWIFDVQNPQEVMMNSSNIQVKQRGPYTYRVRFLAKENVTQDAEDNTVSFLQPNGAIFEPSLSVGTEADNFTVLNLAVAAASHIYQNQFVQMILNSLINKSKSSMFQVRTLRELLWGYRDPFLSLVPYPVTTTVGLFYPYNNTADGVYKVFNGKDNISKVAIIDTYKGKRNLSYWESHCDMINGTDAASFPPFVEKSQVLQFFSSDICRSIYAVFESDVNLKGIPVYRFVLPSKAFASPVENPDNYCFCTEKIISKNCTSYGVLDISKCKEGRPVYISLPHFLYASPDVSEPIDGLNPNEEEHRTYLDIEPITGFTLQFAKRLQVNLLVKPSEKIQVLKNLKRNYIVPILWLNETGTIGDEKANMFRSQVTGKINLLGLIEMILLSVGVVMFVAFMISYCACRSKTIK

[3] = target: human full-length cluster of differentiation 36 (CD36), glycosylated (human) (UniProt P16671); assay: MST; Cy5-labeled receptor (RED-NHS, lysines) at constant 20 nM, ligand in a 16-point 1:1 dilution series; exchange buffer (50 mM Hepes pH 7.5, 150 mM NaCl, 0.025% LMNG, 0.005% CHS); 25 °C, 40% MST power; apparent Kd, one-site specific binding; molar values from average molecular weights (267.5 kDa HDL, 3500 kDa oxLDL)
[4] = target: human full-length scavenger receptor class B type 1 (SR-B1), glycosylated (human) (UniProt Q8WTV0); assay: as above

Sequence of human full-length scavenger receptor class B type 1 (SR-B1), glycosylated (human) (Q8WTV0 other isoform, or with tags, fused parts or gaps): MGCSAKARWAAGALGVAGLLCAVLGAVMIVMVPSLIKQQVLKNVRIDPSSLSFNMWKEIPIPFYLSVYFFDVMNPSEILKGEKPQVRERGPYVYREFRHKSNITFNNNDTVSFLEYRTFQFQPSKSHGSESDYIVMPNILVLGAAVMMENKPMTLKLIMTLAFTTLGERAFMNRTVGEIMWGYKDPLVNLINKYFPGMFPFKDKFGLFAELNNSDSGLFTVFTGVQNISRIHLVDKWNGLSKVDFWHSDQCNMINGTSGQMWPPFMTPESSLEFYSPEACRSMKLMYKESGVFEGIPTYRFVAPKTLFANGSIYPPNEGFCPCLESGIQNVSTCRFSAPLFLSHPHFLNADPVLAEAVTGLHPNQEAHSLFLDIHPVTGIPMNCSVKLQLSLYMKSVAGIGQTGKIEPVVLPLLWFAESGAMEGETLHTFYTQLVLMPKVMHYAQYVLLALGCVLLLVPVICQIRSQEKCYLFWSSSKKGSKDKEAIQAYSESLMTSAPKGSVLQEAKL
Sequence of human high-density lipoprotein (HDL), holoparticle (P02647 whole entry, looked up): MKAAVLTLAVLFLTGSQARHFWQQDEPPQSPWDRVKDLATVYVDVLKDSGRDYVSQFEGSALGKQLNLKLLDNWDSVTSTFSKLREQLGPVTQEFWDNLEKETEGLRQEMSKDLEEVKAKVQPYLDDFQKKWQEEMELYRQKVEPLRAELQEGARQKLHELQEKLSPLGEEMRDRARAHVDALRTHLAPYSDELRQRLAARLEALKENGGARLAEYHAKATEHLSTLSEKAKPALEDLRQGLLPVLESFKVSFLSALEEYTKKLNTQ
Sequence of DiI-labeled high-density lipoprotein (DiI-HDL) (P02647 whole entry, looked up): as above

percent increase of DiI-HDL binding (MFI at 4 °C) against empty vector [1]: 37%
Substance: DiI-labeled high-density lipoprotein (DiI-HDL) (from UniProt P02647 19-267) (complex)

percent increase of DiI-oxLDL binding (MFI at 4 °C) against empty vector [2]: 21%
Substance: DiI-labeled oxidized low-density lipoprotein (DiI-oxLDL) (complex)

Kd [3]: 123 nM
Kd [4]: 194 nM
Substance: human high-density lipoprotein (HDL), holoparticle (from UniProt P02647 19-267) (complex)
